Values joined by “and” are separate entries in the source; they are usually repeats but may differ in a detail not shown here. Identical values can stand only once.

The target in series [1] is SUN domain of human SUN1 (amino-acids 616-812) (human). Nature of the series: SEC-MALS; untreated (native) co-purified complex; 8-13 mg/ml loaded on Superdex 200 Increase 10/300 GL in 20 mM Hepes pH 7.5, 150 mM KCl, 2 mM DTT. (Size exclusion chromatography separates by hydrodynamic size, large species first.)
Series [2] has the same target. Nature of the series: crystal structure; co-expressed and co-purified SUN1-KASH6 at 12 mg/ml; sitting drops, 20 °C; MES pH 6.0 (1.7 Å), Bis Tris pH 5.5 (2.3 Å), sodium citrate pH 5.5 (2.0 Å).
Series [3] shares this target. The series is described as follows: SEC-MALS; co-purified complex treated overnight in 20 mM sodium acetate pH 5.0, 150 mM KCl, 10% glycerol, 2 mM DTT, then analysed in 20 mM Hepes pH 7.5, 150 mM KCl, 2 mM DTT.
Series [4] has the same target. The series is described as follows: SEC-MALS; untreated (native) co-purified complex; 8-13 mg/ml loaded on Superdex 200 Increase 10/300 GL in 20 mM Hepes pH 7.5, 150 mM KCl, 2 mM DTT. The source holds these as a separate data set.
For series [5] the target is unchanged. Nature of the series: crystal structure; co-expressed and co-purified SUN1-KASH6 at 12 mg/ml; sitting drops, 20 °C; MES pH 6.0 (1.7 Å), Bis Tris pH 5.5 (2.3 Å), sodium citrate pH 5.5 (2.0 Å). This is another data set of the same source.
Series [6] deals with the molecule itself. The description is as above.

With “SUN domain of human SUN1 (amino-acids 616-812) (domain or fragment)”, the stoichiometry N is 6 in series [1]; 9 in series [2]; 9 and 6 in series [3].
EDSWTSLEQILWPFTRLRHNGPPPV [KASH6 core H539Q (human JAW1/LRMP amino-acids 531-555)]: in series [3], the stoichiometry N (KASH6 per SUN1) came to 1.
For the molecule EDSWTSLEKILWPFTRLRHNGPPPV [KASH6 core H539K (human JAW1/LRMP amino-acids 531-555)], in series [4], the percent (by mass) as 6:6 complex was 40 % (by mass); the percent (by mass) as 9:6 complex was 60 % (by mass); the stoichiometry N (KASH6 per SUN1) was 1 and 0.67.

B1: KASH domain of human JAW1/LRMP (KASH6, amino-acids 515-555) (peptide, UniProt Q12912 515-555, looked up)
chain: TGQLFQKSVDAAPTQQEDSWTSLEHILWPFTRLRHNGPPPV
notes: JAW1/LRMP (lymphoid restricted membrane protein), human, KASH domain, amino-acids 515-555; KASH6α, KASH6β and KASH6γ are the same peptide in three conformations or sites of the crystal structure; also called KASH6α; KASH6β; not shown: His6, N-terminal, cleaved; MBP, N-terminal, cleaved
For B1, the stoichiometry N (KASH6 per SUN1) in series [5] is 0.67; in series [4] it was 1; in series [3], 0.67 and 1. Besides, the binding result in series [6] is given as “binds”.
EDSATSLEHILWPFTRLRHNGPPPV [KASH6 core W534A (human JAW1/LRMP amino-acids 531-555)] yielded a stoichiometry N (KASH6 per SUN1) in series [3] of 1.
For the molecule EDSWTSLEHILWPFTRLRYNGPPPV [KASH6 core H549Y (human JAW1/LRMP amino-acids 531-555)], in series [3], the percent (by mass) as 6:6 complex was 55 % (by mass); the percent (by mass) as 9:6 complex is 45 % (by mass); the stoichiometry N (KASH6 per SUN1) was 0.67 and 1.
EDSWTSLEHILWPFTRLRHNGPPPV [KASH6 core (human JAW1/LRMP amino-acids 531-555)] gave a stoichiometry N (KASH6 per SUN1) in series [4] of 1. Besides, in series [3], the percent (by mass) as 6:6 complex was 15 % (by mass), the percent (by mass) as 9:6 complex is 85 % (by mass) and the stoichiometry N (KASH6 per SUN1) turned out to be 0.67.

By stoichiometry N is commonly meant a count of units in the complex or per binding partner.
